In patent US8133978 (GlaxoSmithKline, dated 2012):

T1: Human interleukin-18 (recombinant human IL-18) (human, UniProt Q14116 37-193)
T1 sequence: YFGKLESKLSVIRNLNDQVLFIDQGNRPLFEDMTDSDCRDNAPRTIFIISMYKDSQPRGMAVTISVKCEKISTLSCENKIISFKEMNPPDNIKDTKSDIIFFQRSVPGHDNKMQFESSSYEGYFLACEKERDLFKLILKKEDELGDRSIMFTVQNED

B1: H1L3 humanised anti-IL-18 antibody (antibody, human IgG1, kappa, V domains shown)
VH: QVQLVQSGAEVKKPGASVKVSCKVSGEISTGYYFHWVRQAPGKGLEWMGRIDPEDDSTKYAERFKDRVTMTEDTSTDTAYMELSSLRSEDTAVYYCTTWRIYRDSSGRPFYVMDAWGQGTLVTVSS
VL: DIQMTQSPSSVSASVGDRVTITCLASEDIYTYLTWYQQKPGKAPQLLIYGANKLQDGVPSRFSGSGSGTDYTLTISSLQPEDEGDYYCLQGSKFPLTFGQGTKLEIKR
notes: Human IgG1 / kappa
B2: 2C10 rat-human chimera (chimaeric antibody 2C10c) (antibody, V domains shown)
VH: EVQLQQSGAELVRPGTSVKLSCKVSGEISTGYYFHFVRRRPGQGLEWIGRIDPEDDSTKYAERFKDRATLTAQTSSNTAYLNLSSLTSEDTATYFCTTWRIYRDSSGRPFYVMDAWGQGTLVTVSS
VL: DIQMTQSPASLSASLGETVSIECLASEDIYTYLTWYQQKPGKSPQLLIYGANKLQDGVPSRFSGSGSGTQYSLKISGIQPEDEGDYFCLQGSKFPLTFGSGTKLEIKR
notes: Rat 2C10 V regions joined to human IgG1 and kappa C regions; also called Chimera 2C10; 2C10 Chimera

Legend:
[1] = molecular target: T1, Human interleukin-18 (recombinant human …); assay: cell-based or functional assay
[2] = molecular target: T1, Human interleukin-18 (recombinant human …); assay: SPR, Biacore T100, Protein A capture, 25 C, mean n = 3
Method: (§1) The methodology was basically the same as for the method used in Example 4a above; Protein A was immobilised on a CM5 chip at densities of between 2000-6000 RU's by primary amine coupling. Runs were carried out in HBS-EP (Biacore™). The anti-IL-18 antibodies were captured to densities of between 100-500 RUs, human IL-18 was passed over this captured surface at concentrations between 16-0.0625 nM, with 0 nM concentration (i.e., a buffer only injection of captured antibody) used for double referencing. Regeneration after each injection of IL-18 was by mild acidic elution using two injections of 10 mM glycine, pH1.5. […] The binding curves obtained were analysed using the analysis software inherent to the T100 machine using the 1:1 model of binding. Runs were carried out at the temperatures indicated.
These experiments were carried out as described above. Table 6 details the kinetic parameters obtained. […] H1L2 has a better on-rate (ka) than H1L1.

[3] = molecular target: T1, Human interleukin-18 (recombinant human …); assay: SPR, Biacore T100, Protein A capture, 37 C, mean n = 3
Method: as §1

[4] = molecular target: T1, Human interleukin-18 (recombinant human …); assay: SPR, Biacore 3000, antibody captured on Protein A, 25 C
Method: Biacore™ kinetic analysis of the humanised 2C10 antibodies was carried out on a Biacore™ 3000 instrument using Protein A capture of the antibodies in HBS-EP buffer (Biacore™). Briefly, Protein A was immobilised on a CM5 chip by primary amine coupling, using manufacturers recommended protocol, to densities around 2000-4000 resonance units (RU's). Humanised antibody was then passed over the Protein A surface and captured to levels of around 200-500 RU's, after a period of stabilisation, IL-18 (human or Rhesus) was passed over the captured antibody surface at defined concentrations and binding sensorgrams were obtained. […] All curves were double referenced against a buffer injection instead of IL-18 and the data was fitted to the 1:1 binding model using the global fit parameters in BiaEval 4.1. Off-rate ranking experiments were set up using the same Protein A capture method, however, only a single concentration of IL-18 was used (10 nM). Whilst the data was fitted using the same binding model as the kinetic analysis, since only one concentration of analyte was used on the off-rate is reported, this value is useful for ranking rather than giving an exact kinetic measurement and was used as a way of selecting which antibodies would be further investigated. […]

Rhesus IL-18 [5] = molecular target: T2, Rhesus IL-18 (rhesus (rhesus/cynomolgus)); assay: as above
T2 construct: also called Rhesus/Cynomolgus IL-18; rhesus/cynomolgus IL-18
Method: (§2) Biacore™ kinetic analysis of the humanised 2C10 antibodies was carried out on a Biacore™ 3000 instrument using Protein A capture of the antibodies in HBS-EP buffer (Biacore™). Briefly, Protein A was immobilised on a CM5 chip by primary amine coupling, using manufacturers recommended protocol, to densities around 2000-4000 resonance units (RU's). Humanised antibody was then passed over the Protein A surface and captured to levels of around 200-500 RU's, after a period of stabilisation, IL-18 (human or Rhesus) was passed over the captured antibody surface at defined concentrations and binding sensorgrams were obtained. […] All curves were double referenced against a buffer injection instead of IL-18 and the data was fitted to the 1:1 binding model using the global fit parameters in BiaEval 4.1. Off-rate ranking experiments were set up using the same Protein A capture method, however, only a single concentration of IL-18 was used (10 nM). Whilst the data was fitted using the same binding model as the kinetic analysis, since only one concentration of analyte was used on the off-rate is reported, this value is useful for ranking rather than giving an exact kinetic measurement and was used as a way of selecting which antibodies would be further investigated.
(§3) Based upon these observations selected antibodies were investigated in greater detail for binding to human and Rhesus IL-18 at 37° C. The data shown in Table 4b for human IL-18 is the mean (and standard deviation) of six separate determinations.

[6] = molecular target: T1, Human interleukin-18 (recombinant human …); assay: SPR, Biacore 3000, antibody captured on Protein A, 37 C
Method: as §2, §3

Rhesus IL-18 [7] = molecular target: T2, Rhesus IL-18; assay: as above
Method: as §2, §3

[8] = molecular target: T1, Human interleukin-18 (recombinant human …); assay: ELISA, human IL-18 captured by 16D10, antibody titrated
Method: ELISA with all nine humanised variants was carried out at least 6 times using various batches of purified antibody preparation. FIGS. 4A-4C show representative data from one experiment which generated the EC50 value ranking illustrated in Table 7. Human IL-18 was immobilized on Nunc Maxisorp 96-well plates using 2.5 µg/ml of 16D10 (non-neutralising mouse monoclonal antibody) to capture 5 ng/ml of recombinant human IL-18. Anti-IL-18 humanised antibodies were added at various dilutions. Bound humanised antibodies were detected using anti-human IgG Fc specific peroxidase conjugate (Sigma A0170).

[9] = molecular target: T1, Human interleukin-18 (recombinant human …); assay: ELISA, antibody on plate, human IL-18 captured, detected by 16D10; 37 C, in serum
Method: (§4) ELISA was carried out with the three Humanised H1 variants; H1L1, H1L2 and H1L3 to assess binding to human IL-18 at room temperature and at 37° C. in both human serum and in block solution (PBS 0.05% TWEEN with 1% BSA (w/v)). The Humanised antibody variants were immobilised on Nunc Maxisorp 96-well plates at 2.5 µg/ml. Capture of 5 ng/ml of recombinant human IL-18 was carried out either at room temperature or 37° C. in human serum or block solution. Anti-IL-18 mouse monoclonal antibody 16D10 was added. The bound mouse antibody was detected using anti-mouse kappa peroxidase conjugate (Serotec MCA 1291P). Representative EC50 values generated from the study data are illustrated in Table 9.

[10] = molecular target: T1, Human interleukin-18 (recombinant human …); assay: ELISA, antibody on plate, human IL-18 captured, detected by 16D10; 37 C, blocking buffer
Method: as §4

[11] = molecular target: T1, Human interleukin-18 (recombinant human …); assay: ELISA, antibody on plate, human IL-18 captured, detected by 16D10; room temperature, in serum
Method: as §4

[12] = molecular target: T1, Human interleukin-18 (recombinant human …); assay: ELISA, antibody on plate, human IL-18 captured, detected by 16D10; room temperature, blocking buffer
Method: as §4

[13] = molecular target: T1, Human interleukin-18 (recombinant human …); assay: SPR, Biacore T100, Protein A capture, 37 C, mean n = 2
Method: as §1

Rhesus IL-18 [14] = molecular target: T2, Rhesus IL-18; assay: Rhesus IL18 binding ELISA, antibody titrated, OD 490 nm
Rhesus IL-18 [15] = molecular target: T2, Rhesus IL-18; assay: Rhesus IL-18 binding ELISA, antibody titrated, OD 490 nm

Row | Binder | % change vs 2C10 (IC50, KG-1 bioassay) [1] | Kd [2] | Kd [3] | Kd [4] | Kd (Rhesus IL-18 [5]) | Kd [6] | Kd (Rhesus IL-18 [7]) | EC50 [8] | EC50 [9] | EC50 [10] | EC50 [11] | EC50 [12] | Kd [13] | EC50 (read off the curve) (Rhesus IL-18 [14]) | EC50 (read off the curve) (Rhesus IL-18 [15])
1 | B1 | 71.6% | 0.022 nM | 0.0648 nM | 0.0225 nM | 0.109 nM | 0.188 nM | 0.17 nM | 11 ng/mL | 11.4 ng/mL | 3.33 ng/mL | 8.99 ng/mL | 3.79 ng/mL | – | – | –
2 | B2 | – | 0.0091 nM | – | 0.0139 nM | 0.0547 nM | – | – | 7 ng/mL | 10.1 ng/mL | 3.79 ng/mL | 7.3 ng/mL | 3.81 ng/mL | 0.0229 nM | ~20 ng/mL | ~10 ng/mL
